We go through 9 molecules from US20240391961A1.

The target of experiment [1] is T1, 14-3-3ζ nhpSer58 with a FLAG tag at its N-terminus (Homo sapiens (Human)), P63104.
T1 chain: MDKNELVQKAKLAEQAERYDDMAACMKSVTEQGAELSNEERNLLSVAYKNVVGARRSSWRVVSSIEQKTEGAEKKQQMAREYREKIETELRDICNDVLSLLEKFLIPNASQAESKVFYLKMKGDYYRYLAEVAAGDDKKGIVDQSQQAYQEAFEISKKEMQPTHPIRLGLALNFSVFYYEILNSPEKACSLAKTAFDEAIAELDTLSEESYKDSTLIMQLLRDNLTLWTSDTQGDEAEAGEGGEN
To be noted: remark: other sources report otherwise.

Experiment [2] concerns the target 14-3-3ζ nhpSer58 with a FLAG tag at its N-terminus (Homo sapiens (Human)) (UniProt P63104).

B1: 14-3-3 protein theta [OS = Homo sapiens], P27348 1-245 (protein, UniProt P27348 1-245, looked up)
chain: MEKTELIQKAKLAEQAERYDDMATCMKAVTEQGAELSNEERNLLSVAYKNVVGGRRSAWRVISSIEQKTDTSDKKLQLIKDYREKVESELRSICTTVLELLDKYLIANATNPESKVFYLKMKGDYFRYLAEVACGDDRKQTIDNSQGAYQEAFDISKKEMQPTHPIRLGLALNFSVFYYEILNNPELACTLAKTAFDEAIAELDTLNEDSYKDSTLIMQLLRDNLTLWTSDSAGEECDAAEGAEN
The molecule B1 showed an FC in experiment [1] of 0.0473 fold.

B2: 14-3-3 protein sigma [OS = Homo sapiens], P31947 1-248 (protein, UniProt P31947 1-248, looked up)
chain: MERASLIQKAKLAEQAERYEDMAAFMKGAVEKGEELSCEERNLLSVAYKNVVGGQRAAWRVLSSIEQKSNEEGSEEKGPEVREYREKVETELQGVCDTVLGLLDSHLIKEAGDAESRVFYLKMKGDYYRYLAEVATGDDKKRIIDSARSAYQEAMDISKKEMPPTNPIRLGLALNFSVFHYEIANSPEEAISLAKTTFDEAMADLHTLSEDSYKDSTLIMQLLRDNLTLWTADNAGEEGGEAPQEPQS
The molecule B2 displayed an FC in experiment [1] of 0.0526 fold.

B3: Serine/arginine-rich splicing factor 10 [OS = Homo sapiens], O75494 1-262 (protein, UniProt O75494 1-262, looked up)
chain: MSRYLRPPNTSLFVRNVADDTRSEDLRREFGRYGPIVDVYVPLDFYTRRPRGFAYVQFEDVRDAEDALHNLDRKWICGRQIEIQFAQGDRKTPNQMKAKEGRNVYSSSRYDDYDRYRRSRSRSYERRRSRSRSFDYNYRRSYSPRNSRPTGRPRRSRSHSDNDRFKHRNRSFSRSKSNSRSRSKSQPKKEMKAKSRSRSASHTKTRGTSKTDSKTHYKSGSRYEKESRKKEPPRSKSQSRSQSRSRSKSRSRSWTSPKSSGH
For B3, in experiment [1], the FC turned out to be 0.0496 fold.

B4: serrate RNA effector molecule homolog [OS = Homo sapiens] (protein, UniProt Q9BXP5 2-876, looked up)
chain: GDSDDEYDRRRRDKFRRERSDYDRSRERDERRRGDDWNDREWDRGRERRSRGEYRDYDRNRRERFSPPRHELSPPQKRMRRDWDEHSSDPYHSGYEMPYAGGGGGPTYGPPQPWGHPDVHIMQHHVLPIQARLGSIAEIDLGVPPPVMKTFKEFLLSLDDSVDETEAVKRYNDYKLDFRRQQMQDFFLAHKDEEWFRSKYHPDEVGKRRQEARGALQNRLRVFLSLMETGWFDNLLLDIDKADAIVKMLDAAVIKMEGGTENDLRILEQEEEEEQAGKPGEPSKKEEGRAGAGLGDGERKTNDKDEKKEDGKQAENDSSNDDKTKKSEGDGDKEEKKEDSEKEAKKSSKKRNRKHSGDDSFDEGSVSESESESESGQAEEEKEEAEEALKEKEKPKEEEWEKPKDAAGLECKPRPLHKTCSLFMRNIAPNISRAEIISLCKRYPGFMRVALSEPQPERRFFRRGWVTFDRSVNIKEICWNLQNIRLRECELSPGVNRDLTRRVRNINGITQHKQIVRNDIKLAAKLIHTLDDRTQLWASEPGTPPLPTSLPSQNPILKNITDYLIEEVSAEEEELLGSSGGAPPEEPPKEGNPAEINVERDEKLIKVLDKLLLYLRIVHSLDYYNTCEYPNEDEMPNRCGIIHVRGPMPPNRISHGEVLEWQKTFEEKLTPLLSVRESLSEEEAQKMGRKDPEQEVEKFVTSNTQELGKDKWLCPLSGKKFKGPEFVRKHIFNKHAEKIEEVKKEVAFFNNFLTDAKRPALPEIKPAQPPGPAQILPPGLTPGLPYPHQTPQGLMPYGQPRPPILGYGAGAVRPAVPTGGPPYPHAPYGAGRGNYDAFRGQGGYPGKPRNRMVRGDPRAIVEYRDLDAPDDVDFF
On to B4, for which, in experiment [2], the FC stood at 0.12 fold.

B5: 14-3-3 protein epsilon [OS = Homo sapiens], P62258 1-255 (protein, UniProt P62258 1-255, looked up)
chain: MDDREDLVYQAKLAEQAERYDEMVESMKKVAGMDVELTVEERNLLSVAYKNVIGARRASWRIISSIEQKEENKGGEDKLKMIREYRQMVETELKLICCDILDVLDKHLIPAANTGESKVFYYKMKGDYHRYLAEFATGNDRKEAAENSLVAYKAASDIAMTELPPTHPIRLGLALNFSVFYYEILNSPDRACRLAKAAFDDAIAELDTLSEESYKDSTLIMQLLRDNLTLWTSDMQGDGEEQNKEALQDVEDENQ
B5 displayed an FC in experiment [1] of 0.0482 fold.

B6: Histone deacetylase complex subunit SAP18 [OS = Homo sapiens] (protein, UniProt O00422 2-153, looked up)
chain: AVESRVTQEEIKKEPEKPIDREKTCPLLLRVFTTNNGRHHRMDEFSRGNVPSSELQIYTWMDATLKELTSLVKEVYPEARKKGTHFNFAIVFTDVKRPGYRVKEIGSTMSGRKGTDDSMTLQSQKFQIGDYLDIAITPPNRAPPPSGRMRPY
As for B6, the FC in experiment [2] came out at 0.187 fold.

B7: WD and tetratricopeptide repeats protein 1 [OS = Homo sapiens] (protein, UniProt Q8N5D0 1-677, looked up)
chain: MAKVNITRDLIRRQIKERGALSFERRYHVTDPFIRRLGLEAELQGHSGCVNCLEWNEKGDLLASGSDDQHTIVWDPLHHKKLLSMHTGHTANIFSVKFLPHAGDRILITGAADSKVHVHDLTVKETIHMFGDHTNRVKRIATAPMWPNTFWSAAEDGLIRQYDLRENSKHSEVLIDLTEYCGQLVEAKCLTVNPQDNNCLAVGASGPFVRLYDIRMIHNHRKSMKQSPSAGVHTFCDRQKPLPDGAAQYYVAGHLPVKLPDYNNRLRVLVATYVTFSPNGTELLVNMGGEQVYLFDLTYKQRPYTFLLPRKCHSSGEVQNGKMSTNGVSNGVSNGLHLHSNGFRLPESRGHVSPQVELPPYLERVKQQANEAFACQQWTQAIQLYSKAVQRAPHNAMLYGNRAAAYMKRKWDGDHYDALRDCLKAISLNPCHLKAHFRLARCLFELKYVAEALECLDDFKGKFPEQAHSSACDALGRDITAALFSKNDGEEKKGPGGGAPVRLRSTSRKDSISEDEMVLRERSYDYQFRYCGHCNTTTDIKEANFFGSNAQYIVSGSDDGSFFIWEKETTNLVRVLQGDESIVNCLQPHPSYCFLATSGIDPVVRLWNPRPESEDLTGRVVEDMEGASQANQRRMNADPLEVMLLNMGYRITGLSSGGAGASDDEDSSEGQVQCRPS
Take B7: the FC in experiment [2] was 0.202 fold.

B8: GTPase-activating protein and VPS9 domain-containing protein 1 [OS = Homo sapiens] (protein, UniProt Q14C86 1-1478, looked up)
chain: MVKLDIHTLAHHLKQERLYVNSEKQLIQRLNADVLKTAEKLYRTAWIAKQQRINLDRLIITSAEASPAECCQHAKILEDTQFVDGYKQLGFQETAYGEFLSRLRENPRLIASSLVAGEKLNQENTQSVIYTVFTSLYGNCIMQEDESYLLQVLRYLIEFELKESDNPRRLLRRGTCAFSILFKLFSEGLFSAKLFLTATLHEPIMQLLVEDEDHLETDPNKLIERFSPSQQEKLFGEKGSDRFRQKVQEMVESNEAKLVALVNKFIGYLKQNTYCFPHSLRWIVSQMYKTLSCVDRLEVGEVRAMCTDLLLACFICPAVVNPEQYGIISDAPINEVARFNLMQVGRLLQQLAMTGSEEGDPRTKSSLGKFDKSCVAAFLDVVIGGRAVETPPLSSVNLLEGLSRTVVYITYSQLITLVNFMKSVMSGDQLREDRMALDNLLANLPPAKPGKSSSLEMTPYNTPQLSPATTPANKKNRLPIATRSRSRTNMLMDLHMDHEGSSQETIQEVQPEEVLVISLGTGPQLTPGMMSENEVLNMQLSDGGQGDVPVDENKLHGKPDKTLRFSLCSDNLEGISEGPSNRSNSVSSLDLEGESVSELGAGPSGSNGVEALQLLEHEQATTQDNLDDKLRKFEIRDMMGLTDDRDISETVSETWSTDVLGSDFDPNIDEDRLQEIAGAAAENMLGSLLCLPGSGSVLLDPCTGSTISETTSEAWSVEVLPSDSEAPDLKQEERLQELESCSGLGSTSDDTDVREVSSRPSTPGLSVVSGISATSEDIPNKIEDLRSECSSDFGGKDSVTSPDMDEITHGAHQLTSPPSQSESLLAMFDPLSSHEGASAVVRPKVHYARPSHPPPDPPILEGAVGGNEARLPNFGSHVLTPAEMEAFKQRHSYPERLVRSRSSDIVSSVRRPMSDPSWNRRPGNEERELPPAAAIGATSLVAAPHSSSSSPSKDSSRGETEERKDSDDEKSDRNRPWWRKRFVSAMPKAPIPFRKKEKQEKDKDDLGPDRFSTLTDDPSPRLSAQAQVAEDILDKYRNAIKRTSPSDGAMANYESTGDNHDRDLSSKLLYHSDKEVMGDGESAHDSPRDEALQNISADDLPDSASQAAHPQDSAFSYRDAKKKLRLALCSADSVAFPVLTHSTRNGLPDHTDPEDNEIVCFLKVQIAEAINLQDKNLMAQLQETMRCVCRFDNRTCRKLLASIAEDYRKRAPYIAYLTRCRQGLQTTQAHLERLLQRVLRDKEVANRYFTTVCVRLLLESKEKKIREFIQDFQKLTAADDKTAQVEDFLQFLYGAMAQDVIWQNASEEQLQDAQLAIERSVMNRIFKLAFYPNQDGDILRDQVLHEHIQRLSKVVTANHRALQIPEVYLREAPWPSAQSEIRTISAYKTPRDKVQCILRMCSTIMNLLSLANEDSVPGADDFVPVLVFVLIKANPPCLLSTVQYISSFYASCLSGEESYWWMQFTAAVEFIKTIDDRK
Turning to B8, in experiment [2], the FC is 0.177 fold.

B9: transformer-2 protein homolog beta [OS = Homo sapiens] (protein, UniProt P62995 2-288, looked up)
chain: SDSGEQNYGERESRSASRSGSAHGSGKSARHTPARSRSKEDSRRSRSKSRSRSESRSRSRRSSRRHYTRSRSRSRSHRRSRSRSYSRDYRRRHSHSHSPMSTRRRHVGNRANPDPNCCLGVFGLSLYTTERDLREVFSKYGPIADVSIVYDQQSRRSRGFAFVYFENVDDAKEAKERANGMELDGRRIRVDFSITKRPHTPTPGIYMGRPTYGSSRRRDYYDRGYDRGYDDRDYYSRSYRGGGGGGGGWRAAQDRDQIYRRRSPSPYYSRGGYRSRSRSRSYSPRRY
Regarding B9, in experiment [2], the FC stood at 0.194 fold.
